Results on one molecule are retold here after patent US20240245796A1, “LINKERS, DRUG LINKERS AND CONJUGATES THEREOF AND METHODS OF USING THE SAME” (ProfoundBio US Co., priority 2021, published 2024).

The assay has as its system Hela cells. Kind of assay: Flow cytometry binding to Hela cells. The class given is cell-based. The settings on record: transfection supernatant, FIG. 6. As to the method:
The binding activity of the antibodies to Hela cells (ATCC® CCL-2, provided by COBIOER) and to RPTEC/TERT1 cells (ATCC® CRL-4031, provided by COBIOER) was tested by flow cytometry using the transfection supernatants. Briefly, target cells were digested with 0.02% EDTA-2Na, centrifuged at 1500 rpm for 3 mins, and resuspended with PBS. After counting, the cells were added to a 1.5 ml centrifuge tube with 1×10^6 cells per tube, centrifuged at 1500 rpm for 5 minutes, and the supernatant was discarded. Then all the operations were carried out on an ice bath. 100 μL of transfection supernatant was added to each 1.5 ml centrifuge tube. Blank cells, blank cells plus secondary antibody, medium and HEK293 supernatant were set up as the controls. The reaction was performed on an ice bath for 1 hour. Then the cells were pelleted and washed twice with PBS. The secondary antibody, goat anti-Human IgG (PE, abcam, ab98596), was diluted (1:200) and added using 100 μL per tube. The reaction was performed on an ice bath for 1 hour in the dark. The cells were pelleted again and washed twice with PBS, resuspended in 300 μL PBS, and FL2 fluorescence readings were measured by cytometry. The results were analyzed by FlowJoTM10 software.
Anti-FOLR1 antibody binding to Hela and RPTEC/TERT1 cells was tested by FACS. The study was carried out as described above. […]
(In general: In flow cytometry, cells or beads pass a laser one at a time.)

B1: F40: anti-FOLR1 antibody clone; "Clone F40 has a different HCDRs and LCDRs, and with different HFR and LFR" (antibody, V domains shown)
VH: EVQLLESGGGVVQPGRSLRLSCAASGFTFSSYAMHWVRQAPGKGLEWVAVISYDGSNKYYADSVKGRFIISRDNSKNTVYLQMNSLRAEDTAVYYCARPTYVFTYTGSSFDYWGQGTQVTVSS
VL: DIQVTQSPSSLSASLGDTVSITCRASRGLTDSVAWYQQKPGQAPKLLIYAASTLQSGVPSRFGGSGSGSYFTLTITSLQPEDVATYYCQNYKSAPWTFGQGTKVEIK
Consider B1, for which the Hela cell binding entry is given as “weakly positive”.
